Tests used:
[1] = test system: UMM- and DMM-differentiated BMEC-like cells
Method: Unconditioned medium method (UMM) (14, 16) and defined medium method (DMM) (17) were slightly modified and used to differentiate brain microvascular endothelial-like cells (BMEC-like cells). In brief, hiPSCs were seeded onto a Matrigel-coated plate in mTeSR1 supplemented with 10 μM ROCK inhibitor Y-27632 (Selleckchem, Houston, TX, USA) for 24 hours (day −3 or day −4). […] At day 0, cells were induced to differentiate using specific medium for each method: For UMM, medium was switched to unconditioned medium (DMEM/F12 with 20% Knockout serum replacement, 1× non-essential amino acids, 0.5× Glutamax, and 0.1 mM β-mercaptoethanol) and changed every day for 6 days. For DMM, medium was switched to DeSR1 (DMEM/F12 with 1× non-essential amino acids, 0.5× Glutamax, and 0.1 mM β-mercaptoethanol) supplemented with 6 μM CHIR99021 (Selleckchem, Houston, TX, USA) and cultured for 24 hours. […]
(§1) Permeability of EC monolayers was assessed by measuring the clearance of sodium fluorescein (NaFl, 376.3 Da, Sigma-Aldrich) as previously described (16). […] Medium samples containing fluorescent tracer that had diffused across the monolayers were collected from the bottom well every 15 min for a total of 60 min, and fluorescence intensity was measured in a Tecan Infinite M1000 multi-well reader (Tecan Trading AG, Männedorf, Switzerland). […]

[2] = test system: hiPSC-derived naïve ECs
Method: CD34^+ CD31^+ endothelial progenitor cells (EPCs) were differentiated from hiPSCs as described (32, 33). In brief, hiPSCs were seeded onto a Matrigel-coated plate in mTeSR1 supplemented with 5 μM ROCK inhibitor Y-27632 for 24 hours (day −3). Seeding densities at day −3 were optimized between 16′000/cm^2 to 132′000/cm^2 depending on donor and passage in order to obtain high number of CD34^+ CD31^+ EPCs. At day 0 and day 1, medium was changed to LaSR basal medium (Advanced DMEM/F12, 2.5 mM GlutaMAX, and 60 μg/ml ascorbic acid) supplemented with 8 μM CHIR99021. At day 2, medium was switched to LaSR basal medium and changed every day for another 3 days. […] Purified EPCs were seeded onto collagen IV/fibronectin-coated Transwell filters at a density of 100′000/cm^2 or collagen-IV (10 μg/ml)-coated culture plates at a density of 10′000-20′000/cm^2 in hECSR medium and used for assay or further extended EC culture.
as §1

[3] = test system: EECM-BMEC-like cell monolayers; type: in vitro ADME, human
Method: EPCs purified as described above were plated on collagen IV (10 μg/ml)-coated plates in hECSR medium in the presence of 5 μM ROCK inhibitor Y-27632 of 10′000-20′000/cm^2 as described before (33). Twenty-four hours later, medium was changed to hECSR without ROCK inhibitor and then medium was changed every 2 days. Once the cells reached 100% confluency (FIG. 3B (i)), the cells were passaged using Accutase (Innovative Cell Technologies, San Diego, CA, USA). In detail, medium was removed and 1 ml of Accutase was added to the 6-well plate and cells were carefully observed under an inverted microscope (Zeiss Axiovert 25). Once endothelial cells started to become round (FIG. 3B (ii)), the endothelial cells were physically detached by tapping the 6-well plate (FIG. 3B (iii)). […] These cell densities were found optimal for achieving closed monolayers. Coating with collagen IV/fibronectin for Transwell filters was chosen as it was previously shown to be optimal for growing primary BMECs and for UMM-BMEC-like cells. […]
Bovine pericytes (15), the human brain pericyte cell line (HBPCT) (34), the human astrocyte cell line (hAST) (35), and hiPSC-derived astrocytes (iPS_AC) (29) were obtained and maintained as previously described. […] Transendothelial electrical resistance (TEER) was measured using a Volt-Ohm-Meter (Millicell ERS-2, MERSSTX01-electrode). […]

[4] = test system: hPSC-derived endothelial progenitors (Passage 1 ECs); assay: Immunocytochemistry of Passage 1 ECs treated with Wnt ligands, CHIR or conditioned media; type: cell-based, human; conditions: for fraction of GLUT-1+ ECs vs control: Passage 1 ECs, 6 days, Wnt3a 20 ng/mL, Wnt7a 50 ng/mL, Wnt7b 50 ng/mL; for EC purity (proportion of ECs compared to SMLCs): Passage 1 cultures, 6 days treatment
Method: Collagen IV (Sigma-Aldrich) was dissolved in 0.5 mg/mL acetic acid to a final concentration of 1 mg/mL. Collagen IV-coated plates were prepared by diluting a volume of this stock solution 1:100 in water, adding the resulting solution to tissue culture plates, or #1.5 glass bottom plates (Cellvis, Sunnyvale, CA) for cells intended for confocal imaging (1 mL per well for 6-well plates, 0.5 mL per well for 12-well plates, 0.25 mL per well for 24-well plates), and incubating the plates for 1 h at RT. Collagen IV coating solution was removed and EPCs obtained as described above were suspended in hECSR medium and plated at approximately 3×10^4 cells/cm^2. In some experiments, cells were suspended in NR-CM or Astro-CM. In some experiments, ligands and small molecules were added to hECSR medium: CHIR 99021 (Tocris) was used at 4 μM except where indicated; DMSO (Sigma-Aldrich) was used as a vehicle control for CHIR; Wnt3a (R&D Systems) was used at 20 ng/mL; Wnt7a (Peprotech, Rocky Hill, NJ) was used at 50 ng/mL; Wnt7b (Abnova, Tapei, Taiwan) was used at 50 ng/mL; R-spondin 1 (Rspo1; Peprotech) was used at 50 ng/mL; doxycycline was used at 1, 2, or 4 μg/mL. The hECSR medium or CM, including any ligands or small molecules, was replaced every other day until confluent (typically 6 days). We denote this time point “Passage 1.”
Immunocytochemistry was performed in 24-well plates. Cells were washed once with 500 μL DPBS and fixed with 500 μL cold (−20° C.) methanol for 5 min, except cells intended for calponin/SM22a and CD31/Ki67 detection, which were fixed with 500 μL of 4% paraformaldehyde for 15 min. Cells were washed three times with 500 μL DPBS and blocked in 150 μL DPBS supplemented with 10% goat serum (Life Technologies) for 1 h at room temperature, except cells intended for calponin/SM22α detection, which were blocked and permeabilized in DPBS supplemented with 3% BSA and 0.1% Triton X-100, or cells intended for CD31/Ki67 detection, which were blocked and permeabilized in DPBS supplemented with 5% non-fat dry milk and 0.4% Triton X-100. Primary antibodies diluted in 150 μL of the above blocking solutions (see Table 6 for antibody information) were added to cells and incubated overnight at 4° C. on a rocking platform. Cells were washed three times with 500 μL DPBS. Secondary antibodies diluted in 150 μL of the above blocking solutions (see Table 6 for antibody information) were added to cells and incubated for 1 h at room temperature on a rocking platform, protected from light. Cells were washed three times with 500 μL DPBS, followed by 5 min incubation with 500 μL DPBS plus 4 μM Hoechst 33342 (Life Technologies). Images were acquired using an Eclipse Ti2-E epifluorescence microscope (Nikon, Tokyo, Japan) with a 20× objective or an A1R-Si+ confocal microscope (Nikon) with a 100× oil objective. Confocal images were acquired with 1 μm slice spacing.
Images were analyzed using FIJI (ImageJ) software. For epifluorescence images, 5 fields (20×) were analyzed per well, with 3-4 wells per treatment condition. For quantification of cell number, EC colonies were manually outlined, and the Analyze Particles function was used to estimate the number of nuclei within the EC colonies. Nuclei outside the EC colonies were manually counted. EC purity (% EC) was calculated as the number of nuclei within EC colonies relative to total nuclei. To estimate % GLUT-1^+ ECs, cells within the EC colonies with membrane-localized GLUT-1 immunoreactivity (e.g., arrowheads in FIG. 24B) were manually counted. To estimate % Ki67^+ ECs, cells within the EC colonies with at least one nuclear-localized Ki67 punctum were manually counted. For quantification of fluorescence intensity in epifluorescence images, EC colonies were manually outlined, and the Measure function was used to obtain the mean fluorescence intensity for each image channel (fluorophore). A cell-free area of the plate was similarly quantified for background subtraction. […]

Molecule	fraction of GLUT-1+ ECs vs control [4]	EC purity (proportion of ECs compared to SMLCs) [4]	also measured
O=C([O-])c1ccccc1-c1c2ccc(=O)cc-2oc2cc([O-])ccc12.[Na+].[Na+] [sodium fluorescein]			permeability to sodium fluorescein [1]: less than 0.6 ×10^−4 cm/min; PeNaFl, permeability to sodium fluorescein [2]: 2-10 ×10^−3 cm/min; lower permeability compared to naïve ECs [3]: ~10 fold
Wnt7b: recombinant Wnt ligand (Abnova) (protein, UniProt P56706 25-349, looked up) Protein Wnt-7b: ALSSVVALGANIICNKIPGLAPRQRAICQSRPDAIIVIGEGAQMGINECQYQFRFGRWNCSALGEKTVFGQELRVGSREAAFTYAITAAGVAHAVTAACSQGNLSNCGCDREKQGYYNQAEGWKWGGCSADVRYGIDFSRRFVDAREIKKNARRLMNLHNNEAGRKVLEDRMQLECKCHGVSGSCTTKTCWTTLPKFREVGHLLKEKYNAAVQVEVVRASRLRQPTFLRIKQLRSYQKPMETDLVYIEKSPNYCEEDAATGSVGTQGRLCNRTSPGADGCDTMCCGRGYNTHQYTKVWQCNCKFHWCCFVKCNTCSERTEVFTCK	not Wnt7b alone		
Wnt3a: ligand widely used to activate canonical Wnt/β-catenin signaling (R&D Systems) (protein, UniProt P56704 19-352, looked up) Protein Wnt-3a: SYPIWWSLAVGPQYSSLGSQPILCASIPGLVPKQLRFCRNYVEIMPSVAEGIKIGIQECQHQFRGRRWNCTTVHDSLAIFGPVLDKATRESAFVHAIASAGVAFAVTRSCAEGTAAICGCSSRHQGSPGKGWKWGGCSEDIEFGGMVSREFADARENRPDARSAMNRHNNEAGRQAIASHMHLKCKCHGLSGSCEVKTCWWSQPDFRAIGDFLKDKYDSASEMVVEKHRESRGWVETLRPRYTYFKVPTERDLVYYEASPNFCEPNPETGSFGTRDRTCNVSSHGIDGCDLLCCGRGHNARAERRREKCRCVFHWCCYVSCQECTRVYDVHTCK	significant increase	not Wnt3a	
Wnt7a: recombinant Wnt ligand (Peprotech) (protein, UniProt O00755 32-349, looked up) Protein Wnt-7a: LGASIICNKIPGLAPRQRAICQSRPDAIIVIGEGSQMGLDECQFQFRNGRWNCSALGERTVFGKELKVGSREAAFTYAIIAAGVAHAITAACTQGNLSDCGCDKEKQGQYHRDEGWKWGGCSADIRYGIGFAKVFVDAREIKQNARTLMNLHNNEAGRKILEENMKLECKCHGVSGSCTTKTCWTTLPQFRELGYVLKDKYNEAVHVEPVRASRNKRPTFLKIKKPLSYRKPMDTDLVYIEKSPNYCEEDPVTGSVGTQGRACNKTAPQASGCDLMCCGRGYNTHQYARVWQCNCKFHWCCYVKCNTCSERTEMYTCK	slightly increased	increased the proportion of ECs	
Rspo1: potentiator of Wnt signaling (protein, UniProt Q2MKA7 21-263, looked up) R-spondin-1: SRGIKGKRQRRISAEGSQACAKGCELCSEVNGCLKCSPKLFILLERNDIRQVGVCLPSCPPGYFDARNPDMNKCIKCKIEHCEACFSHNFCTKCKEGLYLHKGRCYPACPEGSSAANGTMECSSPAQCEMSEWSPWGPCSKKQQLCGFRRGSEERTRRVLHAPVGDHAACSDTKETRRCTVRRVPCPEGQKRRKGGQGRRENANRNLARKESKEAGAGSRRRKGQQQQQQQGTVGPLTSAGPA			EC purity or expression of GLUT-1, claudin-5 or caveolin-1 ([4]; Rspo1 50 ng/mL in combination with Wnt ligands): did not affect
